Numbering of substitutions follows the chain as printed. Like-named read-outs stand apart in the source and are kept apart here.

The results in this text go back to article doi:10.1101/2024.07.24.604958 (bioRxiv, 2024).

Assay [1] concerns the target T1, CIB2, wild type, Trx-His6 tag removed (mouse, UniProt Q9Z309 1-187).
T1 sequence: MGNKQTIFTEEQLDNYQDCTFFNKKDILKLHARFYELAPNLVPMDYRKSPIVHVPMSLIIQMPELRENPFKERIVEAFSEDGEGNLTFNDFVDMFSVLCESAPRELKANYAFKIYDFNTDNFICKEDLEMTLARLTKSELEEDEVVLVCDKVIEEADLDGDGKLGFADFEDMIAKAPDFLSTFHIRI
The experiment in a line: SEC-MALS.

The target of assay [2] is T2, CIB2 (calcium and integrin-binding protein 2), wild type (mouse, UniProt Q9Z309 1-187).
T2 sequence: T1 sequence
Kind of assay: ITC. For orientation: In ITC the heat of successive injections is recorded.

The target of assay [3] is T2, CIB2 (calcium and integrin-binding …). Kind of assay: ITC. This is another data set of the same source.
For assay [4], the target named is T1, CIB2, wild type, Trx-His6 tag removed. Kind of assay: SEC-MALS. This is another data set of the same source. In general terms: SEC sorts molecules by how far they enter the pores of the column.
In another assay the target is T3, CIB2-DD116/120AA (mouse, UniProt Q9Z309 1-187, DD116/120AA | DD116/120AA).
T3 sequence: T1 sequence with D116A, D120A
The experiment in a line: ITC.

Another assay has as its target T4, CIB2-DD157/161AA (mouse, UniProt Q9Z309 1-187, DD157/161AA | DD157/161AA).
T4 sequence: T1 sequence with D157A, D161A
The experiment in a line: ITC.

A further assay addresses T5, CIB2-E141N (mouse, UniProt Q9Z309 1-187, E141N).
T5 sequence: T1 sequence with E141N
Kind of assay: crystal structure.

For the molecule KGQKAANLDLKKKMKQQALENKMRNKKMAAARAAAAAGGQ (domain or fragment, mouse, UniProt Q8R4P5 718-757, looked up) [TMC1 CR3 (amino acids 718-757) as used in SEC-MALS], the “stoichiometry N” value in assay [1] was 1. KGQKAANLDLKKKMKQQALENKMRNKKMAAARAAAAAGGQ (domain or fragment, mouse, UniProt Q8R4P5 718-757, looked up) [TMC1 cytosolic region 3 (CR3, amino acids 718-757)]: in assay [2], the Kd is ~43400 nM.

B1: TMC1 cytosolic region 2 (CR2, amino acids 298-352) with MBP tag (domain or fragment, mouse, UniProt Q8R4P5 298-352, looked up)
chain: GGGDDNTFNFSWKVFCSWDYLIGNPETADNKFNSITMNFKEAIIEERAAQVEENI
For B1, the Kd is ~10800 nM in assay [2] and ~480 nM in assay [3].

B2: TMC1 CR2 (amino acids 298-352) as used in SEC-MALS (domain or fragment, mouse, UniProt Q8R4P5 298-352, looked up)
chain: B1 chain
Take B2: the “stoichiometry N” value in assay [4] worked out at 1. Take EELERLKALLDENRQMIATVKCKPWKMEKKIEVLKEAKKFVSENEGALGK (domain or fragment, mouse, UniProt Q8R4P5 81-130, looked up) [TMC1 cytosolic region 1 (CR1, amino acids 81-130)]: the Kd is ~870 nM in assay [2] and ~74 nM in assay [3]. The “fold decrease of binding against CIB2 WT” value is ~150 fold with CIB2-DD116/120AA and ~50 fold with CIB2-DD157/161AA. For the molecule EELERLKALLDENRQMIATVKCKPWKMEKKIEVLKEAKKFVSENEGALGK (domain or fragment, mouse, UniProt Q8R4P5 81-130, looked up) [TMC1 CR1 (amino acids 81-130), Trx-His6 tag removed], the binding result in the assay with CIB2-E141N is on record as “binds”. Also, the “stoichiometry N” value in assay [4] turned out to be 1.

Broadly, the stoichiometry N is the number of molecules, sites or subunits per partner or assembly. Usually Kd stands for the constant that tells how readily two partners part at equilibrium.
